The values that follow come from IntAct's records for PubMed 18325333.

This test addresses cdk5_mouse Cdk5 (UniProt P49615).

Chain of Cyclin-dependent kinase 5 activator 1 (Mus musculus), P61809 D288A (P61809 whole entry D288A): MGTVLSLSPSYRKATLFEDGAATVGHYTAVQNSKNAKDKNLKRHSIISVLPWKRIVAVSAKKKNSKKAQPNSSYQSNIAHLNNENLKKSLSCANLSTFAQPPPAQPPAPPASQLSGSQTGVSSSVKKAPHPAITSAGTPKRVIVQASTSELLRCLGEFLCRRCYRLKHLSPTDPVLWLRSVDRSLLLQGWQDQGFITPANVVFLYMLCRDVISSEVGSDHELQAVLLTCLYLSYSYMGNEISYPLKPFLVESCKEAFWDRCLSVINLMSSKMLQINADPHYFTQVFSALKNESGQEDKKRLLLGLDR
Chain of Cyclin-dependent kinase 5 activator 1 (Mus musculus), P61809 L289A (P61809 whole entry L289A): as the sequence (P61809 whole entry D288A) above, with A288D, L289A counted along it

As to “Cyclin-dependent kinase 5 activator 1 (Mus musculus), P61809 D288A”, the “effect of a mutation on the interaction” value is on record as “disrupting interaction”. The entry for “Cyclin-dependent kinase 5 activator 1 (Mus musculus), P61809 L289A” is “disrupting interaction”.
